# Measured values taken from patent publication US20240066131A1 (Protagonist Therapeutics, Inc., priority 2020, published 2024).
# Starred links: 1 amine or outer side, 2 acyl side, 3 side chain; linkers in the order of their positions; H or OH if unused. Non-standard residues stand in square brackets, D forms with d. Groups on a side chain read outwards from the residue. Primed or numbered codes have the meaning given here. *: point of attachment. Tet2 = (S)-2-amino-4-(1H-tetrazol-5-yl)butanoic acid, O=C([C@H](CCc1nn[nH]n1)N[*:1])[*:2]; ButanoicP = (R)-4-(pyrrolidin-2-yl)butanoic acid, O=C(CCC[C@@H]1CCCN1[*:1])[*:2]; Ala(1H-tetrazol-5-yl) = N[C@@H](Cc1nnn[nH]1)C(=O)O; Dip = N[C@H](C(=O)O)C(c1ccccc1)c1ccccc1; His(τ-Me) = Cn1cnc(C[C@H](N)C(=O)O)c1; Stearoyl = CCCCCCCCCCCCCCCCCC(=O)*; Palmitoyl = CCCCCCCCCCCCCCCC(=O)*; Myristoyl = CCCCCCCCCCCCCC(=O)*; β3hF = N[C@H](CC(=O)O)Cc1ccccc1; hLeu = CC(C)CC[C@H](N)C(=O)O; Isovaleryl = CC(C)CC(=O)*; hIle′ = not defined here; AEEA = NCCOCCOCC(=O)O; Ahx = NCCCCCC(=O)O; βAla = NCCC(=O)O
# T1: human ferroportin (SLC40A1) fused in frame with GFP, stably expressed in HEK293 cells (human, UniProt Q9NP59 1-571)
# T1 sequence (looked up): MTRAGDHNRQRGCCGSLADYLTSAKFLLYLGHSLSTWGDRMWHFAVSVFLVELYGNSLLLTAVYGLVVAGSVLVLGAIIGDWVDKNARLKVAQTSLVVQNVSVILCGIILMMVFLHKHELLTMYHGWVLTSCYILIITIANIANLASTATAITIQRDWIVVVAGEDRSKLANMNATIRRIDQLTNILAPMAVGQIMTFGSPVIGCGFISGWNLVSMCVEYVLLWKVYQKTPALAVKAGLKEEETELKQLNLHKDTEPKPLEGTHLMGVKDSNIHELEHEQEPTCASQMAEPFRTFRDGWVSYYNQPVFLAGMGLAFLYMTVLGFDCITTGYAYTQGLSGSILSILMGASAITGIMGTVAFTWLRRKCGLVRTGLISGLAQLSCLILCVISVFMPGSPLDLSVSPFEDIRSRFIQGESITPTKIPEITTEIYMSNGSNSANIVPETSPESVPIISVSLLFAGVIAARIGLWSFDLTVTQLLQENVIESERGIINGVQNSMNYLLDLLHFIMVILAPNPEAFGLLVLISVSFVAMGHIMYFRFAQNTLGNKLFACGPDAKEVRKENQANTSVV
# B1: Isovaleric Acid-[Tet1]-T-[His_1Me]-[Dpa]-P-A-I-[Lys(Ahx_Palm)]-NH2 (peptide)
# peptide: Isovaleryl-[Ala(1H-tetrazol-5-yl)]T[His(τ-Me)][Dip]PAIK([Ahx-Palmitoyl])-NH2
# SMILES: CCCCCCCCCCCCCCCC(=O)NCCCCCC(=O)NCCCC[C@H](NC(=O)[C@@H](NC(=O)[C@H](C)NC(=O)[C@@H]1CCCN1C(=O)[C@@H](NC(=O)[C@H](Cc1cn(C)cn1)NC(=O)[C@@H](NC(=O)[C@H](Cc1nnn[nH]1)NC(=O)CC(C)C)[C@@H](C)O)C(c1ccccc1)c1ccccc1)[C@@H](C)CC)C(N)=O
# B2: Isovaleric Acid-[Tet2]-T-[His_1Me]-[Dpa]-P-I-I-[Lys(Ahx_Palm)]-[bhPhe]-NH2 (peptide)
# peptide: Isovaleryl-[Tet2]T[His(τ-Me)][Dip]PIIK([Ahx-Palmitoyl])[β3hF]-NH2
# SMILES: CCCCCCCCCCCCCCCC(=O)NCCCCCC(=O)NCCCC[C@H](NC(=O)[C@@H](NC(=O)[C@@H](NC(=O)[C@@H]1CCCN1C(=O)[C@@H](NC(=O)[C@H](Cc1cn(C)cn1)NC(=O)[C@@H](NC(=O)[C@H](CCc1nn[nH]n1)NC(=O)CC(C)C)[C@@H](C)O)C(c1ccccc1)c1ccccc1)[C@@H](C)CC)[C@@H](C)CC)C(=O)N[C@H](CC(N)=O)Cc1ccccc1
# B3: Isovaleric Acid-[Tet1]-T-H-[Dpa]-P-A-I-[Lys(Ahx_Palm)]-NH2 (peptide)
# peptide: Isovaleryl-[Ala(1H-tetrazol-5-yl)]TH[Dip]PAIK([Ahx-Palmitoyl])-NH2
# SMILES: CCCCCCCCCCCCCCCC(=O)NCCCCCC(=O)NCCCC[C@H](NC(=O)[C@@H](NC(=O)[C@H](C)NC(=O)[C@@H]1CCCN1C(=O)[C@@H](NC(=O)[C@H](Cc1c[nH]cn1)NC(=O)[C@@H](NC(=O)[C@H](Cc1nnn[nH]1)NC(=O)CC(C)C)[C@@H](C)O)C(c1ccccc1)c1ccccc1)[C@@H](C)CC)C(N)=O
# B4: Isovaleric Acid-[Tet2]-T-H-[Dpa]-P-I-I-[Lys(Ahx_Palm)]-[bhPhe]-NH2 (peptide)
# peptide: Isovaleryl-[Tet2]TH[Dip]PIIK([Ahx-Palmitoyl])[β3hF]-NH2
# SMILES: CCCCCCCCCCCCCCCC(=O)NCCCCCC(=O)NCCCC[C@H](NC(=O)[C@@H](NC(=O)[C@@H](NC(=O)[C@@H]1CCCN1C(=O)[C@@H](NC(=O)[C@H](Cc1c[nH]cn1)NC(=O)[C@@H](NC(=O)[C@H](CCc1nn[nH]n1)NC(=O)CC(C)C)[C@@H](C)O)C(c1ccccc1)c1ccccc1)[C@@H](C)CC)[C@@H](C)CC)C(=O)N[C@H](CC(N)=O)Cc1ccccc1
# B5: Isovaleric Acid-E-T-H-[Dpa]-P-V-I-[Lys(Ahx_Palm)]-[bhPhe]-NH2 (peptide)
# peptide: Isovaleryl-ETH[Dip]PVIK([Ahx-Palmitoyl])[β3hF]-NH2
# SMILES: CCCCCCCCCCCCCCCC(=O)NCCCCCC(=O)NCCCC[C@H](NC(=O)[C@@H](NC(=O)[C@@H](NC(=O)[C@@H]1CCCN1C(=O)[C@@H](NC(=O)[C@H](Cc1c[nH]cn1)NC(=O)[C@@H](NC(=O)[C@H](CCC(=O)O)NC(=O)CC(C)C)[C@@H](C)O)C(c1ccccc1)c1ccccc1)C(C)C)[C@@H](C)CC)C(=O)N[C@H](CC(N)=O)Cc1ccccc1
# B6: Isovaleric Acid-E-T-H-[Dpa]-P-[hLeu]-I-[Lys(Ahx_Palm)]-[bhPhe]-NH2 (peptide)
# peptide: Isovaleryl-ETH[Dip]P[hLeu]IK([Ahx-Palmitoyl])[β3hF]-NH2
# SMILES: CCCCCCCCCCCCCCCC(=O)NCCCCCC(=O)NCCCC[C@H](NC(=O)[C@@H](NC(=O)[C@H](CCC(C)C)NC(=O)[C@@H]1CCCN1C(=O)[C@@H](NC(=O)[C@H](Cc1c[nH]cn1)NC(=O)[C@@H](NC(=O)[C@H](CCC(=O)O)NC(=O)CC(C)C)[C@@H](C)O)C(c1ccccc1)c1ccccc1)[C@@H](C)CC)C(=O)N[C@H](CC(N)=O)Cc1ccccc1
# B7: Isovaleric Acid-E-T-H-[Dpa]-P-A-[Lys(Ahx_Palm)]-NH2 (peptide)
# peptide: Isovaleryl-ETH[Dip]PAK([Ahx-Palmitoyl])-NH2
# SMILES: CCCCCCCCCCCCCCCC(=O)NCCCCCC(=O)NCCCC[C@H](NC(=O)[C@H](C)NC(=O)[C@@H]1CCCN1C(=O)[C@@H](NC(=O)[C@H](Cc1c[nH]cn1)NC(=O)[C@@H](NC(=O)[C@H](CCC(=O)O)NC(=O)CC(C)C)[C@@H](C)O)C(c1ccccc1)c1ccccc1)C(N)=O
# B8: Isovaleric Acid-[Tet1]-T-H-[Dpa]-P-I-I-[Lys(Ahx_Palm)]-[bhPhe]-NH2 (peptide)
# peptide: Isovaleryl-[Ala(1H-tetrazol-5-yl)]TH[Dip]PIIK([Ahx-Palmitoyl])[β3hF]-NH2
# SMILES: CCCCCCCCCCCCCCCC(=O)NCCCCCC(=O)NCCCC[C@H](NC(=O)[C@@H](NC(=O)[C@@H](NC(=O)[C@@H]1CCCN1C(=O)[C@@H](NC(=O)[C@H](Cc1c[nH]cn1)NC(=O)[C@@H](NC(=O)[C@H](Cc1nnn[nH]1)NC(=O)CC(C)C)[C@@H](C)O)C(c1ccccc1)c1ccccc1)[C@@H](C)CC)[C@@H](C)CC)C(=O)N[C@H](CC(N)=O)Cc1ccccc1
# B9: Isovaleric Acid-E-T-H-[Dpa]-P-A-I-[Lys(1PEG2_1PEG2_Ahx_Palm)]-[bhPhe]-NH2 (peptide)
# peptide: Isovaleryl-ETH[Dip]PAIK([AEEA-AEEA-Ahx-Palmitoyl])[β3hF]-NH2
# SMILES: CCCCCCCCCCCCCCCC(=O)NCCCCCC(=O)NCCOCCOCC(=O)NCCOCCOCC(=O)NCCCC[C@H](NC(=O)[C@@H](NC(=O)[C@H](C)NC(=O)[C@@H]1CCCN1C(=O)[C@@H](NC(=O)[C@H](Cc1c[nH]cn1)NC(=O)[C@@H](NC(=O)[C@H](CCC(=O)O)NC(=O)CC(C)C)[C@@H](C)O)C(c1ccccc1)c1ccccc1)[C@@H](C)CC)C(=O)N[C@H](CC(N)=O)Cc1ccccc1
# B10: Isovaleric Acid-[Tet1]-T-[His_1Me]-[Dpa]-[ButanoicP]-[Lys(Ahx_Palm)]-NH2 (peptide)
# peptide: Isovaleryl-[Ala(1H-tetrazol-5-yl)]T[His(τ-Me)][Dip][ButanoicP]K([Ahx-Palmitoyl])-NH2
# SMILES: CCCCCCCCCCCCCCCC(=O)NCCCCCC(=O)NCCCC[C@H](NC(=O)CCC[C@@H]1CCCN1C(=O)[C@@H](NC(=O)[C@H](Cc1cn(C)cn1)NC(=O)[C@@H](NC(=O)[C@H](Cc1nnn[nH]1)NC(=O)CC(C)C)[C@@H](C)O)C(c1ccccc1)c1ccccc1)C(N)=O
# Target: T1, human ferroportin (SLC40A1) fused in …
# Assay: cell-based or functional assay
row,Binder,FPN EC50 [nM]
1,Isovaleryl-ETH[Dip]P[tBuAlanine]IK([Ahx-Palmitoyl])[β3hF]-NH2 [Isovaleric Acid-E-T-H-[Dpa]-P-[t-BuAlanine]-I-[Lys(Ahx_Palm)]-[bhPhe]-NH2],34.2
2,Isovaleryl-ET[His(τ-Me)][Dip]PAIK([Ahx-Palmitoyl])-NH2 [Isovaleric Acid-E-T-[His_1Me]-[Dpa]-P-A-I-[Lys(Ahx_Palm)]-NH2],73
3,Isovaleryl-ETH[Dip]PIIK([Ahx-Palmitoyl])[β3hF]-NH2 [Isovaleric Acid-E-T-H-[Dpa]-P-I-I-[Lys(Ahx_Palm)]-[bhPhe]-NH2],232
4,Isovaleryl-ETH[Dip]PAIK([βAla-Palmitoyl])[β3hF]-NH2 [Isovaleric Acid-E-T-H-[Dpa]-P-A-I-[Lys(bAla_Palm)]-[bhPhe]-NH2],62.9
5,B1,30.2
6,Isovaleryl-ETH[Dip]P[hIle′]IK([Ahx-Palmitoyl])[β3hF]-NH2 [Isovaleric Acid-E-T-H-[Dpa]-P-[hIle]-I-[Lys(Ahx_Palm)]-[bhPhe]-NH2],228
7,Isovaleryl-ETH[Dip]PAIK([Ahx-Myristoyl])[β3hF]-NH2 [Isovaleric Acid-E-T-H-[Dpa]-P-A-I-[Lys(Ahx_C14)]-[bhPhe]-NH2],92.4
8,B2,101
9,B3,44.1
10,Isovaleryl-ETH[Dip]P[DiethylGly]IK([Ahx-Palmitoyl])[β3hF]-NH2 [Isovaleric Acid-E-T-H-[Dpa]-P-[DiethylGly]-I-[Lys(Ahx_Palm)]-[bhPhe]-NH2],69.7
11,B4,376
12,Isovaleryl-ET[His(τ-Me)][Dip]PIIK([Ahx-Palmitoyl])[β3hF]-NH2 [Isovaleric Acid-E-T-[His_1Me]-[Dpa]-P-I-I-[Lys(Ahx_Palm)]-[bhPhe]-NH2],59.7
13,Isovaleryl-[Ala(1H-tetrazol-5-yl)]T[His(τ-Me)][Dip]PIIK([Ahx-Palmitoyl])[β3hF]-NH2 [Isovaleric Acid-[Tet1]-T-[His_1Me]-[Dpa]-P-I-I-[Lys(Ahx_Palm)]-[bhPhe]-NH2],33.4
14,Isovaleryl-ETH[Dip]PAIK([Ahx-Stearoyl])[β3hF]-NH2 [Isovaleric Acid-E-T-H-[Dpa]-P-A-I-[Lys(Ahx_C18)]-[bhPhe]-NH2],82.2
15,B5,199
16,Isovaleryl-ETH[Dip]PLIK([Ahx-Palmitoyl])[β3hF]-NH2 [Isovaleric Acid-E-T-H-[Dpa]-P-L-I-[Lys(Ahx_Palm)]-[bhPhe]-NH2],372
17,B6,150
18,B7,193
19,B8,86.8
20,Isovaleryl-ETH[Dip]PAIK([AEEA-AEEA-Palmitoyl])[β3hF]-NH2 [Isovaleric Acid-E-T-H-[Dpa]-P-A-I-[Lys(1PEG2_1PEG2_Palm)]-[bhPhe]-NH2],73.7
21,Isovaleryl-ETH[Dip]PAIK([Ahx-C22])[β3hF]-NH2 [Isovaleric Acid-E-T-H-[Dpa]-P-A-I-[Lys(Ahx_C22)]-[bhPhe]-NH2],1330
22,B9,63.5
23,Isovaleryl-ETH[Dip]PAIK([Ahx-C10])[β3hF]-NH2 [Isovaleric Acid-E-T-H-[Dpa]-P-A-I-[Lys(Ahx_C10)]-[bhPhe]-NH2],123
24,B10,214
